Results as given in US20060057144A1 (published 2006).

B1: PsFcγRIIa (recombinant soluble human FcγRIIa protein produced in baculovirus-infected Sf-21 cells) (receptor)
chain: APPKAVLKLEPPWINVLQEDSVTLTCQGARSPESDSIQWFHNGNLIPTHTQPSYRFKANNNDSGEYTCQTGQTSLSDPVHLTVLFEWLVLQTPHLEFQEGETIMLRCHSWKDKPLVKVTFFQNGKSQKFSHLDPTFSIPQANHSHSGDYHCTGNIGYTLFSSKPVTITVQV
notes: Amplified from FcγRIIa LR cDNA; also called PsFc.RIIa; soluble FcγRIIa

Assays:
monomeric human IgG3 [1] = target: T1, monomeric human IgG3 (human, UniProt P01860-1 1-377); assay: SPR equilibrium, two site fit, immobilised IgG3; remaining 50% of the sites
T1 construct: Immobilised by amine coupling on a CM5 chip
Description: (§1) About 4000 to about 6000 response units (RU) of monomeric human immunoglobulin subclasses IgG1, IgG2, IgG3, and IgE (50 ug/ml of each) were covalently coupled to separate carboxymethylated dextran surface of each CM5 sensor-chips (available from BIAcore, Uppsala, Sweden) using a amine coupling kit (available from BIAcore), according to manufacturer's methods. […] Following administration of the protein, the immunoglobulin surface was regenerated on each chip using a buffer containing 50 mM diethylamine pH 11.5, and 1 M NaCl. […] Data points obtained from the IgE channels were subtracted to correct for refractive index differences.

monomeric human IgG1 [2] = target: T2, monomeric human IgG1 (human); assay: SPR equilibrium, two site fit, immobilised IgG1; about 90% of the sites
T2 construct: Immobilised by amine coupling on a CM5 chip
Description: as §1

monomeric human IgG1 [3] = target: T2, monomeric human IgG1; assay: SPR equilibrium, two site fit, immobilised IgG1; remaining 10% of the sites
Description: as §1

monomeric human IgG3 [4] = target: T1, monomeric human IgG3; assay: SPR equilibrium, two site fit, immobilised IgG3; 50% of the sites
Description: as §1

[5] = target: B1; assay: SPR; FcγRIIa (50 µg/mL) premixed with a range of hexapeptide concentrations, passed over immobilised IgG1; against no peptide
Description: (§2) At the conclusion of the concentration dependence measurements all surfaces were regenerated using 50 mM diethylamine (pH 11.5), 1 M NaCl. The total response measured for each concentration of peptide was determined and plotted against the peptide concentration. The non-specific binding responses (IgE channel) were subtracted from binding to IgG1 or IgG3.

[6] = target: B1; assay: SPR; FcγRIIa (50 µg/mL) premixed with a range of hexapeptide concentrations, passed over immobilised IgG3; against no peptide
Description: as §2

T1 sequence (P01860 other isoform, or with tags, fused parts or gaps): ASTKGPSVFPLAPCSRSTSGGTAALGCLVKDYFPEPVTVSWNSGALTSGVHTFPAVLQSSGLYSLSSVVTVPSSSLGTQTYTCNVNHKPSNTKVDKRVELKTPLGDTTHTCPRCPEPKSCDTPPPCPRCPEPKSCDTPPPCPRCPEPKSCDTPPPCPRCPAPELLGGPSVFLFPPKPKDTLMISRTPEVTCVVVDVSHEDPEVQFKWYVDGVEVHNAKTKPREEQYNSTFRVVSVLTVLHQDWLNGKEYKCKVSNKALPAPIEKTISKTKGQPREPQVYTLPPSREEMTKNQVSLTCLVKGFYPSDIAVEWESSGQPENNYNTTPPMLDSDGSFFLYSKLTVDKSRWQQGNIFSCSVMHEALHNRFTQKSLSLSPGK

| Binder | Ka (monomeric human IgG3 [1]) [M⁻¹] | Ka (monomeric human IgG1 [2]) [M⁻¹] | Ka (monomeric human IgG1 [3]) [M⁻¹] | Ka (monomeric human IgG3 [4]) [M⁻¹] | fold enhancement of FcγRIIa binding to IgG1 [5] [fold] | fold enhancement of FcγRIIa binding to IgG3 [6] [fold] |
| --- | --- | --- | --- | --- | --- | --- |
| B1 | ~12000 | ~2.1e+06 | ~23000 | ~2.7e+06 |  |  |
| Ac-FQNGKS-NH2 [acetylated hexapeptide of sequence FQNGKS (Ac-Phe-Gln-Asn-Gly-Lys-Ser-NH2)] |  |  |  |  | 4 | 1.6 |
